From article PMC5481773, “Structural insights into the function of ZRANB3 in replication stress response” (Nature Communications, 2017) come the findings set out here.

Residue numbers refer to the chain shown, from its start. Names may count otherwise.

B1: N1036A: ZRANB3 HNH active site mutant (protein, UniProt Q5FWF4 1-1079, looked up, variant N1036A)
DNA annealing helicase and …: MPRVHNIKKSLTPHISCVTNESDNLLDFLPDRLRAKLLPFQKDGIIFALKRNGRCMVADEMGLGKTIQAIGITYFYKEEWPLLIVVPSSLRYPWTEEIEKWIPELSPEEINVIQNKTDVRRMSTSKVTVLGYGLLTADAKTLIDALNNQNFKVVIVDESHYMKSRNATRSRILLPIVQKARRAILLTGTPALGRPEELFMQIEALFPQKFGRWTDYAKRYCNAHIRYFGKRPQWDCRGASNLNELHQLLSDIMIRRLKTEVLTQLPPKVRQRIPFDLPSAAAKELNTSFEEWEKIMRTPNSGAMETVMGLITRMFKQTAIAKAGAVKDYIKMMLQNDSLKFLVFAHHLSMLQACTEAVIENKTRYIRIDGSVSSSERIHLVNQFQKDPDTRVAILSIQAAGQGLTFTAASHVVFAELYWDPGHIKQAEDRAHRIGQCSSVNIHYLIANGTLDTLMWGMLNRKAQVTGSTLNGRKEKIQAEEGDKEKWDFLQFAEAWTPNDSSEELRKEALFTHFEKEKQHDIRSFFVPQPKKRQLMTSCDESKRFREENTVVSSDPTKTAARDIIDYESDVEPETKRLKLAASEDHCSPSEETPSQSKQIRTPLVESVQEAKAQLTTPAFPVEGWQCSLCTYINNSELPYCEMCETPQGSAVMQIDSLNHIQDKNEKDDSQKDTSKKVQTISDCEKQALAQSEPGQLADSKEETPKIEKEDGLTSQPGNEQWKSSDTLPVYDTLMFCASRNTDRIHIYTKDGKQMSCNFIPLDIKLDLWEDLPASFQLKQYRSLILRFVREWSSLTAMKQRIIRKSGQLFCSPILALEEITKQQTKQNCTKRYITKEDVAVASMDKVKNVGGHVRLITKESRPRDPFTKKLLEDGACVPFLNPYTVQADLTVKPSTSKGYLQAVDNEGNPLCLRCQQPTCQTKQACKANSWDSRFCSLKCQEEFWIRSNNSYLRAKVFETEHGVCQLCNVNAQELFLRLRDAPKSQRKNLLYATWTSKLPLEQLNEMIRNPGEGHFWQVDHIKPVYGGGGQCSLDALQTLCTVCHKERTARQAKERSQVRRQSLASKHGSDITRFLVKK
B2: D1020Y: cancer associated ZRANB3 mutant (protein, UniProt Q5FWF4 1-1079, looked up, variant D1020Y)
DNA annealing helicase and …: B1 DNA annealing helicase and … with D1020Y, A1036N
B3: D1020A: ZRANB3 HNH active site mutant (protein, UniProt Q5FWF4 1-1079, looked up, variant D1020A)
DNA annealing helicase and …: B1 DNA annealing helicase and … with D1020A, A1036N
B4: R947Q: cancer associated ZRANB3 mutant (protein, UniProt Q5FWF4 1-1079, looked up, variant R947Q)
DNA annealing helicase and …: B1 DNA annealing helicase and … with R947Q, A1036N
B5: K1046A, R1048A: ZRANB3 double mutant in helix α8 (protein, UniProt Q5FWF4 1-1079, looked up, variant K1046A R1048A)
DNA annealing helicase and …: B1 DNA annealing helicase and … with A1036N, K1046A, R1048A
B6: K984A: ZRANB3 basic residues HNH mutant (protein, UniProt Q5FWF4 1-1079, looked up, variant K984A)
DNA annealing helicase and …: B1 DNA annealing helicase and … with K984A, A1036N
B7: T66A: cancer associated ZRANB3 mutant (protein, UniProt Q5FWF4 1-1079, looked up, variant T66A)
DNA annealing helicase and …: B1 DNA annealing helicase and … with T66A, A1036N
B8: K988A: ZRANB3 basic residues HNH mutant (protein, UniProt Q5FWF4 1-1079, looked up, variant K988A)
DNA annealing helicase and …: B1 DNA annealing helicase and … with K988A, A1036N
B9: R987A: ZRANB3 basic residues HNH mutant (protein, UniProt Q5FWF4 1-1079, looked up, variant R987A)
DNA annealing helicase and …: B1 DNA annealing helicase and … with R987A, A1036N
B10: K998A: ZRANB3 basic residues HNH mutant (protein, UniProt Q5FWF4 1-1079, looked up, variant K998A)
DNA annealing helicase and …: B1 DNA annealing helicase and … with K998A, A1036N
B11: H1045A: ZRANB3 HNH active site mutant (protein, UniProt Q5FWF4 1-1079, looked up, variant H1045A)
DNA annealing helicase and …: B1 DNA annealing helicase and … with A1036N, H1045A
B12: H1021A: ZRANB3 HNH active site mutant (protein, UniProt Q5FWF4 1-1079, looked up, variant H1021A)
DNA annealing helicase and …: B1 DNA annealing helicase and … with H1021A, A1036N
B13: H1015A: ZRANB3 HNH active site mutant (protein, UniProt Q5FWF4 1-1079, looked up, variant H1015A)
DNA annealing helicase and …: B1 DNA annealing helicase and … with H1015A, A1036N
B14: R1009A: ZRANB3 basic residues HNH mutant (protein, UniProt Q5FWF4 1-1079, looked up, variant R1009A)
DNA annealing helicase and …: B1 DNA annealing helicase and … with R1009A, A1036N

System in the first data set: not listed separately
The data set can be described thus: NADH-coupled ATPase assay of ZRANB3 proteins. Type of data set: biochemical. The following applies: 150 nM ZRANB3, 5 mM ATP, 0.5 μM flap DNA, 24 °C, A340 nm, average rates. The procedure: The NADH-coupled ATPase assay is based on a reaction in which the regeneration of hydrolysed ATP is coupled to the oxidation of NADH[59]. It was used as described, with minor modifications. ZRANB3 (150 nM) was added to a 150 μl reaction containing 25 mM Tris-Cl pH 7.5, 13 mM MgCl2, 1.8 mM DTT, 100 μg ml^−1 BSA, 3 mM phosphoenolpyruvate, 36 U ml^−1 pyruvate kinase, 20 U ml^−1 lactate dehydrogenase, 0.5 μM flap DNA, and 5 mM ATP, with 750 μM NADH added immediately before ZRANB3. Reactions were mixed for 1 min on a shaker at 23 °C and analysed by measuring A340 nm at 20 s intervals during 60 min, on a Spectramax 250 microplate spectrophotometer at 24 °C. Linear titration of freshly prepared NADH was performed to obtain a standard curve for units of absorbance mM^−1 NADH. ATPase rates were calculated from data collected between time points where product formation was linear with respect to time.
For the molecule B1, the ATP hydrolysis rate is 14.05 ± 2.46 µmol/L/min.
As for B2, the ATP hydrolysis rate came to 11.60 ± 3.30 µmol/L/min.
The same measure, in the same setting: with B3 the figure was 12.94 ± 0.67 µmol/L/min; with B4, 10.24 ± 1.15 µmol/L/min; with B5, 19.38 ± 1.74 µmol/L/min.
The same measure, in the same setting: with B6 the figure was 20.93 ± 2.01 µmol/L/min; with B7, 0.45 ± 0.03 µmol/L/min.
On to B8, for which the ATP hydrolysis rate worked out at 18.83 ± 1.94 µmol/L/min.
Still for that read-out and setting: under B9 stands 6.34 ± 0.40 µmol/L/min; under B10, 15.12 ± 0.48 µmol/L/min; under B11, 8.91 ± 0.66 µmol/L/min.
Take B12: the ATP hydrolysis rate was determined as 18.59 ± 1.98 µmol/L/min.
Still for that read-out and setting: with B13 the figure was 18.67 ± 2.24 µmol/L/min.
The same measure, in the same setting: with B14 the figure was 7.49 ± 2.57 µmol/L/min.

Staying with this data set, now noted: 150 nM ZRANB3, 5 mM ATP, 0.5 μM flap DNA, 24 °C, average rates.
In turn, B1 showed a k of 93.71 ± 16.43 min⁻¹.
Regarding B2, the k was determined as 77.36 ± 22.04 min⁻¹.
Molecule B3 had a k of 86.32 ± 4.49 min⁻¹.
Same read-out and setting: with B4 the figure was 68.26 ± 7.70 min⁻¹.
B5 showed a k of 129.23 ± 11.62 min⁻¹.
Still for that read-out and setting: under B6 stands 139.56 ± 13.45 min⁻¹; under B7, 3.02 ± 0.21 min⁻¹.
The same measure, in the same setting: under B8 stands 125.55 ± 12.95 min⁻¹.
As to B9, the k turned out to be 42.31 ± 2.70 min⁻¹.
On the same count and under the same terms, with B10 the figure was 100.85 ± 3.22 min⁻¹; with B11, 59.42 ± 4.40 min⁻¹; with B12, 123.95 ± 13.19 min⁻¹.
The same measure, in the same setting: with B13 the figure was 124.46 ± 14.96 min⁻¹; with B14, 49.94 ± 17.14 min⁻¹.

For another data set, the system named is splayed DNA duplex. In words: Nuclease assay with wild-type and mutant ZRANB3 proteins. Type of data set: biochemical. The settings on record: 200 nM nuclease, 10 nM fluorescently labelled DNA substrate, 2 mM ATP, 30 °C, 60 min, native PAGE (Fig. 3c). The text has this:
Figure 3 Characterisation of the ZRANB3 HNH active site. (a) Overlay of the T4 endonuclease VII (yellow) and the ZRANB3 HNH (white) structures. […] (b) Overlay of the T4 endonuclease VII (yellow, labels in italics) and the ZRANB3 HNH (white) structures. Mg^2+ ion in T4 endonuclease is shown as a purple sphere. His1021, Asp1020 and His1045 in the HNH structure overlap with the active site residues of T4 endonuclease VII. (c) Nuclease assay with the wild-type and mutant ZRANB3 proteins in the presence and absence of ATP. Reactions were analysed by native poly-acrylamide gel electrophoresis. Indicated are mobilities of the fluorescently labelled DNA substrate and product. (d) Nuclease assay with non-hydrolysable ATP homologues. Shown are controls with the wild-type ZRANB3 and the ATPase dead K65R mutant in the presence of ATP.
Oligonucleotides used in the nuclease assays (5′-[…]-[…]-3′ and Cy3 5′-end-labelled 5′-[…]-[…]-3′) were incubated in 10 mM Tris-HCl pH 7.5, 50 mM NaCl for 3 min at 94 °C, after which the reactions were allowed to gradually cool down.
The nuclease assays with ZRANB3 was performed essentially as described in ref. [9]. Briefly, reaction mixtures containing the indicated nuclease (200 nM) and fluorescently labelled DNA substrate (10 nM) in 10 μl of reaction buffer (50 mM Tris-HCl; 50 mM NaCl; 5 mM MgCl2; 2 mM ATP (Sigma); pH 7.5) were incubated at 30 °C for 60 min. The reactions were stopped by incubation with 0.1% SDS and 4 mg ml^−1 of proteinase K at 30 °C for 45 min. The reactions were then mixed with sucrose (10% final concentration) and resolved in a 10% polyacrylamide gel in 0.5 × TBE buffer (45 mM Tris-borate, 1 mM EDTA; pH 7.5). The fluorescent DNA species were visualized and quantified using Pharos Mx imager and Quantity one software (BioRad).
For the molecule B1, the “ZRANB3 endonuclease activity of mutant protein” value is given as “substantially reduced”.
Still for that read-out and setting: under B3 stands “completely abrogated”; under B11, “completely abrogated”.
For B12, the “ZRANB3 endonuclease activity of mutant protein” value is listed as “completely abrogated”.
